From patent US20030032587A1, “Urocortin peptides” (The Salk Institute for Biological Studies, priority 1995, published 2003)
Where no end group is shown, it is not given here.

Columns and labels:
[1] = molecular target: T1, human CRF binding protein (human, UniProt P24387 25-322); assay: competitive hCRF-BP ligand binding assay with 125I[Nle21,Tyr32]-oCRF
T1 construct: also called hCRF-BP; CRF-BP
T1 sequence (looked up): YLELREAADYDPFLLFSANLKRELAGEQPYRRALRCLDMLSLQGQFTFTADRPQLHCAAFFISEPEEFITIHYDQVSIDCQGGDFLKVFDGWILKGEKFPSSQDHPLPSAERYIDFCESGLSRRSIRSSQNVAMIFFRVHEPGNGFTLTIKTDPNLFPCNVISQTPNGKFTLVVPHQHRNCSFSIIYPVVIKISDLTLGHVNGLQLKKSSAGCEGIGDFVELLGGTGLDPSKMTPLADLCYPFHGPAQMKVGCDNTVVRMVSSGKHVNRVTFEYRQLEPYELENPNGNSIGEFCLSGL

[2] = molecular target: human CRF-R2β, stably transfected CHO cells (human) (UniProt Q13324); assay: competitive displacement of [125I-Tyr0]Ucn from stably transfected CHO cells expressing human CRF-R2β; 95% confidence limits in brackets
[3] = molecular target: T2, human CRF-R1 (cloned hCRF-R1), stably expressed in CHO cells (human, UniProt P34998 24-415); assay: competitive displacement of 125I-(Nle21,Tyr32) ovine CRF from CHO cells stably expressing hCRF-R1; LIGAND program, 95% confidence limits in brackets
T2 construct: whole, on cells; also called hCRF-RA
T2 sequence (looked up): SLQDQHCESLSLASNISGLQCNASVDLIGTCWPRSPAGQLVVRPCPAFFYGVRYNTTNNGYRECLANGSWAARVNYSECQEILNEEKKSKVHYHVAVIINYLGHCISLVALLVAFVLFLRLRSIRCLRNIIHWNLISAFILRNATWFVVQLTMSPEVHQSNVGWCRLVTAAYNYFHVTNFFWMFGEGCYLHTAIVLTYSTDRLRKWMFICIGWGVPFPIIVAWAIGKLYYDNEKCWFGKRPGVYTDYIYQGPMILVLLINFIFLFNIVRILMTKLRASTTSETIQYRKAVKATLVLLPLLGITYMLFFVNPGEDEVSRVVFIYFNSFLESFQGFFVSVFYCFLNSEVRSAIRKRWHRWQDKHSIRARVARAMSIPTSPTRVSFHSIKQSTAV
Description: Binding assays with cells expressing human CRF-R1 are carried out as described in the Chen et al. P.N.A.S., supra.

binding result [1]: binds
Ki [2]: 3 nM
Ki [3]: ~0.43 nM
B1: suckerfish urotensin I (peptide)
peptide: NDDPPISIDLTFHLLRNMIEMARIENEREQAGLNRKYLDEV-NH2
notes: also called sfUI; suckerfishUI
